B1: 1034 (protein, listed as Paenibacillus mucilaginosus)
chain: MSSTQTLRGRFDDPPAEYRAAPFWAWNDALREEEVLRQIGEMKEGGMGGFFIHSRDGLETEYMGTEWMKLVRAAVEEAEAQGMQAWLYDEDRWPSGFAGGLVQARGGDDYRAKGLTLEVVPAEKEGSGRLAERLADGAPVALFRAVIAERSLLSCTRLDLQVMFGSRMEAAAAAENTLLPPILEPQQEQHQDHETVYLLFRVEVSERSEWFNGEAPPDNLNPDTVRTFIELTYEAYEREVGGSFGSAVRGVFTDEPSIHDRHCRFTPGRAWLPWSGSFPAFYRERRGSDVLDTAPYLFFDGSLSPQARHDYWRTVTERFSEAYSGQIGEWCGSRGLAFTGHYLWENNLGTATRVCGAVMPNYRYQHVPGIDMLGEQTNETITVKQCTSVAHQYGRKVVLSETYGCTGWGFTFEGQRWVGDFQYVLGVNLRSQHLALYSIKGCRKRDYPPVFHYNTSWWKFSRVIEDYYARLSAVLTEGRPIRDVLVLHPSTTAWSMVGTGPYGFPARGKDRDVSAANRYGHEFNAFLRGLLGAHYDFDLGDEIILSEIGSVRQTEQTARLAVGMAEYRTVVLPEIRTMLRSTFLLLTGFLEAGGRVVAVGPPAELLEGRPAPELSRLYGHPGLTVVPDGAAAAAALESFLPRRVSIRHQAPQHTEPAEADKMLYMLQKADNRRVLFIVNNDREEEQQVTITLEGEGLLEEWNALTGEVTDVLVRRSQEGLLEFDASFGPADSKLYVLHTDRAPETGLNASPASEAPLLLVDPGTIRMELLQEPAGFTRTAPNALTLDRCSYRLRDGDWSGEMDVWQAQRAVREALGMRQVYGNGLEQRYRWVHEPHPGDGTPAAFRFDFEVTDVPEGEIHLVVESAGEYELGLNGNPVPGVPDGWFLDRSFDRVPLSGLRAGRNELVLSCRYHQRMEVEDLYLTGDFGVDEGRRITREPEKLQLGDWCLQGYPHYAGSMVYRFTVDGGLTPGGPAWLELGSFQAVTAEVRINRETAGHVPWRAANRLDISGRLRQGENLIEVEVMGSPRNLLGPFHHTSGDPSITSWSSFRKEGGDYSPAYRLRPYGLFGGIRLYRVQEQGGKGG
B2: 1008 (protein, listed as Pedobacter heparinus)
chain: MNLKTTGIVLVLSTIVCFPCIAQKNLEQSFKVTPDTIQTSVYWYWMSDNISKDGVVKDLYAMKSAGINRAFIGNIGYETTPYGKVKLFSAEWWDIMHTALKTATNLNIEIGVFNSPGWSQSGGPWVKPAQAMRYLASTKANFVGPKQLNVQLEKPKGYFQDVRVIAYKTPKAYGNSIAVHKPKLSSSISVQNINNLIDGSENTTVDIPATESITIDLETSSSFTARSLVVYPAHKGLNVNVELQVKKNKEYVSVKTFSVNRTNSNLHVGFKPYGPVAVSIPPTIGHSFRLVFGKSGGFGLAEVVLSQTPVVESYTEKTLAKMFQSPLPYWNEYQWPDQPLIDDLSLVIDPKTVIDITTFMNAEGQLKWDLPAGNWTIMRTGMLPTGVKNGPASPEGTGLEIDKMSKEHVANHFDAFMGELLRRIPAADRKTWKVVVQDSYETGGQNWTDDMIEKFKASFHYDPLPYLPVIQGEVVGDQNQSDRFLWDLRRFIADRVAYDYVGGLRDISHKHGLTTWLENYGHWGFPGEFLQYGGQSDEIGGEFWSEGELGNIENRAASSAAHIYGKTKVSAESFTAGDKPYQRYPYIMKQRGDRFFTEGINNTLLHLFIQQPSEDKVPGINANFGNEFNRHNTWFSYIDLFTGYLKRTNFMLQQGKYVADVAYFIGEDAPKMTGITDPALPAGYSFDYINAEVIQTRMKVKDGRMVLPDGMSYKLLVLPKLKTMRPELLAKIKELVAQGANILGPAPERSPSLANFPEADAKVKRMVTELWGNVNGTTIKTRKLGKGTIMSGMDMKLALNALNILPDFKTNTTDPVLFIHRSGPQAELYFISNQSEKQITFSPTFRSVDMQPELWDPVTGKTRVLSELSANGSSTTIPLTLEPLQSIFVVFRNPLVASPIRAINFPEAKTIEEINGPWKVTFNSQMRGPEKPVMFDTLIDWTKRPEESIKYYAGTAVYSNSFRATKPVKGERIYLYFSEVSVMAKVKVNGTDVGGMWTAPWRVDITDAIISGVNTLDISVVNNWVNRLVGDSKLPEAKRKTWTNNNPYTPDSKLVPSGLTGKVVVKTIKY
B3: 1035 (protein, listed as Caulobacter segnis)
chain: MVKAYRPSLVLVLALAFGPAASAEPIWITHPAAPSAPTVVRFERDLTLARKPGHFPVRVSADNRFILLVNGRRVGAGPATSDLGHWRYATLDLAPYLTRGSNHLEAVVWNYVKPEEPIPDGLSPAQKNAAAFRNQRNQTGPVAQISARLGFWFSAPGAPELDSGPTWRVQLDSARSAAPVMGQVAGFYAAGPSEIVDARVPLAAPVAATPALAPGEPSPWALSADPLPQMSYRAVDPGLVARTNLDEAKAFPRQPVTIPARKTVKILLARPAMVAAYPTLRVTGGKDASIKLTYAEALIDAKGRKGLRSEVGDRTIRGLSDRFTADGGARAFAPLWWRTWRYLEIEVQTADQPLRLQGLDVAETDYPFGQVGKFVSDDPELNRIWDIGWRTARIDAHETYMDTAYYEQLQYVGDTRLQALISYAVSGDPRLATQAMDAFGASRALGGVTEGAYPSRTSNPIPPFSLLWIGMLHDYWSRHPDPEPARRHLARAREVLAWFDGYLGPDGLMRKTPGWSFVDWAVKDGRLLSRDAFPSYDAQGRSCLLSLAYLGALRDMTDLEAALGEPSLAGRDRSRAEAIAAAVRDQCWAPDRGLFADTPDKASFSQHTNALAVLYDVAAPKDAAAILDRTVGQAGIDAPTGMISTSYYYAWYLVRAFDHAGQADRYLSLLDTWRGLLALDYTTWPEERGNTRSDTHAWSAHPTADLLELVAGIRPDAPGYGRLRVEPHLGALRRLDAAAATPQGPVEVKYRRKGQRLVVEVRKPAGLSGVFVWRGQSHALLGARTRLDLPAGD
B4: 1042 (protein, listed as Streptomyces scabiei)
chain: MNPTAPAEQTPTDITVSVTGLRTADDSGLVATAHAMPRLSWSLTGTRPGILQHAYEIQVSGAPSFDDTTSSGQVESGTVTDHPWPAQPLSSRETRHWRVRVRTDRGWTRWSDPARVEGALLDAVDWAARPVHVPSDRGRPSPGPVPLLRREFHLPAEPVSARLYVTSLGVHRTTLNGRPVSADLLEPGWTSYPDRLLYATYDVTGLLRPGPNALAAAVGDGWFRGHLTWHKNRDVYGDTTGLLAQLEVDLTDGTRVTVITDGRWKGGYGDLLSADLYDGCERDLRAEPHGWQLPGFADDGWEPVAVLPLPEGLGQRAHPPVRVVRTVRPRLRTLADGTIAVDAGENVTGRLRIRADGRPGGTVTVRHAEVLDGDGRLLTSILRGARATDRYTLAEGPADLTPEFTFHGFRYAEIDASPDVSVEAVEVEVVAGDLRRIGEFHCSDERVNTLYANVVRSQRGNFLAVPTDCPQRDERLGWTGDIMAFAPTACATFDSASFLDSRLTDLRIQQRPDGAVPMVVPDVPLGELPPAELPFAGAAAGWGDAATVVPAALFEAYGQPHLLERHYTAMRAWVEFTVAHLDEDGTWSGNAQLGDWLDPAAPPENPAAATTDSGYVATAFVAHSARLLADAARELGFPEDADRYTALHRRTAEAAWRKWGDHARTTQTGCALALEFGIAPAGERAEVGKALASLVRANGGRIATGFLGTPFVLPALGDTGHVAEAYELLLNPECPGWLHQVSRGATTMWERWDAIGPDGTVDVENAGTMLSFNHYAYGAVASWLYRSVAGLRPASPGYRTLDIAPRPGATLTSAEAAVDTPYGTASVAWSIGDGSLTVRAVLPPGTTGRFSAPEGWTCTEPVDALASGSHVLSLRPLTRP
B5: 1010 (protein, listed as Paenibacillus mucilaginosus)
chain: MEENRLWNARWIWHQSYPWTSDPGTHEMVWFRREFDVTDPHLAQLVVDISADSRYRLFLNGDSVSVGPCKGDRSTHYYETVDLSERLIAGTNVLAAQVLHFAPSGPHLLGVSGPLSIHRAVSGAMFLEGVLIEGNGHSQTLHSDEKWLCKKMPGFKLVPSPIIFFLGGFEDTDGSGLDHGWELPGYDDEGWTNAVIVCETGDKFGQLTPWQLAPRPIPPMREEPASFRGITKADDRAAIPGYEAMLRGGDTRSVRVEAGQSIWLELDAGELVTGYVTLKLRGGRESRIKLLYAESYEEPASNLHHRVKGIRDDAENGILLGEADHYTVAGVGIGESVERYEPFDFRTFRYLRLEAAAKDEPLEIVLLSYRDTGYPLNAQAAFSCSDPDYAALWELSLKTLRRCMHETYEDCPYYEQLQYTMDTRLQMMFTYAVSADDRLARRALFDYHSSALPSGMLQSRYPSEYRQVIPSFSLYWIHMLYEHYWHFGDRELIRRYVPTMTGVLGWFRRMLTPEGLVAPTPRAYWPYFDWCIDWENGTPPAHAKGPLTLLSQMLAAALQTASQIYEAVGWSDAAREAKADANAVNEALLRLCWRPERGLFADGPEVEEFSQHAQVWGVVCGAVQGEDAVRLLERTIEPQAEHMAQLSVPASYELFRMLSRHGLYGKASNVIDRWKAFLHLHLTTLPEVTDDNHPRSDCHAWSALPLSEFTGEILGVRPGAPGYSEIIVSPQPLQLSWAKGSAATRHGSVEVEWTLDEEAVFRMSGNGPVGIPLLVVLPNGKQVEFRHGGKFEASAKLRA
B6: 1036 (protein, listed as Bacteroides cellulosilyticus)
chain: MNRYILFFFLILSTLTTLRAQQSRLVEVGNGYSQTSVNTTVFRNNSLVTQGDEQYISYYDGDGYLVLGKRKLDSDQWTLKRTQYKGNVKDAHNIISMMLDGEGYLHLSFDHHGHKLNYCRSTAPYTLELGDKEPMTGVDEGNVTYPEFYPLNGGDLLFVYRSGSSGRGNLVMNHYSVKEKKWNRVQDVLIDGEDQRNAYWQLYVDEQGTIHLSWVWRETWHVETNHDLCYARSYDNGVTWYKANGKKYDLPIRYNNAEYACRIPQNSELINQTSMSADASGNPYIATYWRDPDSEVPQYRIVWHDGQMWHNRQVSNRHTPFSLKGGGTKMIPIARPRIVVDGGEIFYIFRDEERGSRVSLAHAAAVGVGKWTFTDLTNFPVDAWEPSHDTELWKQKRRLHLFVQHTKQGDGERRVEFAPQPVYVLEVVKPKGD

One assay can be described thus: Experiment 6-1: screening of rhamnosidases for derhamnosylation of saponins in treated bark extract (2%), desglucosyl-QS-17 2134 to QS-21 1988 (PAR %). In kind it is biochemical, Quillaja saponaria. The following applies: TBE 2%, pH 7.5, 30 degC, 18 h; TIC peak area ratio percent, LCMS/MS; negative controls 2.719, 2.158.
Turning to B1, the “Peak75 (PAR %)” value is given as 2.389%.

On to B2, for which the “Peak75 (PAR %)” value is 2.538%.

As for B3, the “Peak75 (PAR %)” value was found to be 2.427%.

As to B4, the “Peak75 (PAR %)” value was found to be 2.599%.

Take B5: the “Peak75 (PAR %)” value is 2.559%.

Turning to B6, the “Peak75 (PAR %)” value stood at 2.444%.

The nature of a further assay: Experiment 6-1: screening of rhamnosidases for derhamnosylation of saponins in treated bark extract (2%), QS-17 2296 to QS-18 2150 (PAR %). The class given is biochemical, Quillaja saponaria. The note with it: TBE 2%, pH 7.5, 30 degC, 18 h; TIC peak area ratio percent of rhamnosylated starting saponin to derhamnosylated product, LCMS/MS; negative controls 4.876, 5.225.
As for B1, the “QS-17 (PAR %)” value is listed as 4.827%.

For the molecule B2, the “QS-17 (PAR %)” value is on record as 4.834%.

Turning to B3, the “QS-17 (PAR %)” value came to 4.825%.

On to B4, for which the “QS-17 (PAR %)” value came to 4.871%.

B5: the “QS-17 (PAR %)” value was determined as 4.796%.

Consider B6, for which the “QS-17 (PAR %)” value is reported as 4.834%.

A further assay is described as follows: Experiment 6-1: screening of rhamnosidases for derhamnosylation of saponins in treated bark extract (2%), QS-17 2310 to QS-18 2164 (PAR %). In kind it is biochemical, Quillaja saponaria. The following applies: TBE 2%, pH 7.5, 30 degC, 18 h; TIC peak area ratio percent, LCMS/MS; negative controls 3.061, 2.429.
On to B1, for which the “Peak57 (PAR %)” value is 3.034%.

Regarding B2, the “Peak57 (PAR %)” value was found to be 2.658%.

B3: the “Peak57 (PAR %)” value amounted to 2.987%.

On to B4, for which the “Peak57 (PAR %)” value is 3.383%.

As to B5, the “Peak57 (PAR %)” value turned out to be 2.845%.

Consider B6, for which the “Peak57 (PAR %)” value came out at 2.852%.

The nature of another assay: Experiment 6-1: specificity of rhamnosidases towards other rhamnose residues (C3 saccharide rhamnose, C28 saccharide rhamnose). The class given is biochemical, Quillaja saponaria. The following applies: TBE 2%, pH 7.5, 30 degC, 18 h; LCMS/MS; negative controls 0.18, 0.17.
Regarding B1, the “ratio PP/QS-21” value was 0.17.

As to B2, the “ratio PP/QS-21” value is 0.17.

Regarding B3, the “ratio PP/QS-21” value is 0.17.

On to B4, for which the “ratio PP/QS-21” value is 0.18.

For the molecule B5, the “ratio PP/QS-21” value came to 0.18.

As to B6, the “ratio PP/QS-21” value is 0.16.

These data come from patent US20240026407A1, “MODIFICATION OF SAPONINS” (GLAXOSMITHKLINE BIOLOGICALS SA, priority 2020, published 2024).
